The results in this text go back to patent US20180087053, “ANTI-CANCER RNA APTAMERS” (CITY OF HOPE, published 2018).

The series has as its target mortalin (mitochondrial Hsp70, mHSP70) on PANC-1 cell surface (Homo sapiens, UniProt P38646 P38646:47-679). Briefly: flow; intact PANC-1 cells, 37 C, 15.6-500 nM aptamer; target identified as mortalin by pulldown/MS. The following applies: tags: endogenous, label: Cy3 (flow) or 3'-biotin (SPR, pulldown), multi-stem-loop (Mfold). The procedure:
FIG. 1A-1G: Showing the secondary structure and pancreatic cancer specific internalization (FIG. 1A). Cartoon of the secondary structures of P19 (SEQ ID NO:2) and P1 (SEQ ID NO:4) are shown; aptamers were selected from randomized N40 RNA libraries and were predicted using the Mfold program. (FIG. 1B) Cy3-labeled RNAs were tested for binding to PANC-1 and NC as control cells by flow cytometry. Data represent the average of three replicated. Initial RNA library pool is shown as Library, P1 and P19. Cy3 labeled P19 and P1 incubation in. (FIG. 1C) Cy3-labeled RNAs (100 nM) was tested for internalization by confocal in negative cells, PANC-1 and MIA PaCa-2: Cy3-labeled RNA. (FIG. 1D) Cy3-labeled RNAs (100 nM) was tested for the internalization in primary pancreatic epithelial cells; Cy3-labeled RNA. (FIG. 1E) The representative images by histopathological screen in pancreatic cancer and normal pancreas. The samples were stained with Cy3 labeled aptamer P1 and P19 respectively and examined at 100× magnification. White arrow indicate that P19 binding to cancer region. Cy3-labeled RNA. (FIG. 1F) A total of 72 patients of pancreatic adenocarcinoma had undergone. The Correlation coefficient between P1 and P19 is 0.891. […] Median fluorescence intensity (MFI) was measured and calculated using one site binding non-linear curve regression with a Graph Pad Prism.

mortalin (mitochondrial Hsp70, mHSP70) on PANC-1 cell surface, sequence (P38646 47-679, one chain of several): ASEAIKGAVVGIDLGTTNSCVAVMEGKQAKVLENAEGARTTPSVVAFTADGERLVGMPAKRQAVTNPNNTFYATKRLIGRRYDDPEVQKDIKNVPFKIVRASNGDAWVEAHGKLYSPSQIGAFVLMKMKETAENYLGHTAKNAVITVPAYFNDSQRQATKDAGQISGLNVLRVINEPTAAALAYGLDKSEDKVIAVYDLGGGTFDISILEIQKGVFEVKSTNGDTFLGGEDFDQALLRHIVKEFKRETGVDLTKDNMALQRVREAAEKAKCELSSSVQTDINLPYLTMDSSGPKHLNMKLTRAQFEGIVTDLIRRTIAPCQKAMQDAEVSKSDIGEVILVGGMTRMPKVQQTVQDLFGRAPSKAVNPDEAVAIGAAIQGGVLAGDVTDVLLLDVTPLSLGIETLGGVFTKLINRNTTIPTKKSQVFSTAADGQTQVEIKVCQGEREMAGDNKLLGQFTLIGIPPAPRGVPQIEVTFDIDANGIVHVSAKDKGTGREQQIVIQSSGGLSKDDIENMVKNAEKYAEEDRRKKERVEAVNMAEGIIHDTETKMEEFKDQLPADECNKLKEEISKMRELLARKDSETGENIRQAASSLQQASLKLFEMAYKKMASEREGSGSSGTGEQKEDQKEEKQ

B1: P19 (ssRNA)
RNA: GGGAGACAAGAAUAAACGCUCAAUGGCGAAUGCCCGCCUAAUAGGGCGUUAUGACUUGUUGAGUUCGACAGGAGGCUCACAACAGGC
modifications: 2'-F pyrimidines
As for B1, the dissociation constant Kd (usually a measure of binding affinity in units of concentration) came out at 13.1 nM.
